Source: the DeepSol protein solubility set

test: soluble on expression in E. coli; label from the status in PepcDB or PDB records

Soluble on expression in E. coli, not soluble:
MGSDKIHHHHHHMQPEFNRPEFLEGNSAEEIHERMMNNLPDDIDDMPGGFPYDMTMPAALEKDEIINFHIVRALMIAFPEYAWDEWLDLHGRQVHLTRHEAEPAFGYVKITAAEGTEILSGTVFCTAATETGPSIEYATTEDVVVGGEGSVLIPVSAVEAGTGSNVAANTVVLMMVPDKNVTEINNPEPIRGGTERETDDDFYDRIAAEYDNSMTYLGNDTDYKRWAKQAGAGDAIVISTWNGPGTVKLVLVDGNGKPANAKLVQDVYNYIVSPNDRSARLLPTGTAELTCAAATTVAVNYVIAGLSYDETTGIEQIKADFTEAVRAVYAQAKTEGVLRYNDVRPLISAIAGVEDFETFTMNGKMQNITLKSEEYPDTGTLNFS
MGSDKIHHHHHHMQQLTKPKKIAIIGAGFRGITAAKIFQDAGIEFVILDKNDATGGVWRTFANQSSYVQIPEPEYRFDMDYPNGLPSEFTPRDEILAHAERFINVHGIGKHIIFKSEVFSIEDISDSKYRVYYKHDNANKSLEVDGIYYAGGRLHKRRTVHFPGEKNFQGLIRYGISDDMPISEYRGKKVAIIGCGAFAMENARTALLNGATHVTIIAKTINIVLPRMVMFWLNSMRLAPVAPLLKMSWKMYDWAGTNFMKENLDGFSINQRTVPIISDFIFLAHKVGKAEFKKDSIDFIDSNSVVTSDGTKIEADIILKCVGFEGQMDVFKQVYPPFEAVNWIWVNKKTNFVLDQDPEFGMTTKATKLMTSGSTLLLTKIAARVFAMSLINPSKFEQIIPVLPTSQNAGYNISYHMGSLSKLLVANKDIKKFILRTSAKKSKSMIEKGGNGKYLEFCKREWKQQCEALGVEEVEYPFVFPWWILLWENWQQLVNRFFLAAFPEQNIVRDIQPEDVEWSFISAES
MGSDKIHHHHHHMQRIMVIGGPGSGKSTLGRKLGARLGLPVVHMDPIYWLGDWVERDKAEAMRMAKEVADGSQWVFEGNHFASMAYRAERADLIVFLDMPRVLRMWRILWRSLRYYGRTRPDMGPNCPERFNRAFLKFCWTYDREGRLRALGFVDDWRDRRRVRILTSRRQVAAFLVEIDRQ
MGSDKIHHHHHHMQSIMPEADYSFLSMDPTMNANTGNKDSLATPSHTPQLQAFCDVVESRRSVRRFTDAPIPDDVLADCLRLAMLAPNSSNLQPWEFYVIDDADKRKRAVKNCMNQNAAKTSARLIAVVARTDVWHDHAKKILREYPDMPVPKKVKDYYNKVVALDFLRGPANVVSVAKWSAIQVVRRIKGPIKSPYYTFEDTKNWATNNTALAAGNLMLALRAHGFDSCPMGGFDEPAMKRLLKLSNHHHIVMMIGAGERADNGVYNTQFRFEQDQFVHYV
MGSDKIHHHHHHMQVRRFGRTNWNVSEIGYGMWGASGWKGSDDSQSEQSLDLAVSKGVNFFDTAWGYGEGHSEQLLGKLVKRHQSKKIYVATKIPPMNFKWPSKKSYTIGECFPVSHIKEYTETSLKNLGVEKIDLMQFHVWEDAWATDESWQRAVEDLQKEGKVDAFGISVNRWEPENCLETLKTGLIDSVQVIYNIFDQAPEDALLPLCKKLDIAVIARVPFDEGTLTGTITKDTTFEEGDWRASYFVPENLISSAEHADRLRPILPSGMTMAEMALRFILMNDDIATTIPGMRKERNVLANTGVSDGKKLSLDLYNELKKHRWDREPTSWSQ
MGSDKIHHHHHHMQWETVIGLEIHAQLSTRSKIFSGASVAYGAEPNSQACAVDIALPGVLPVLNRQAIEYAIRFGLAIDATINSPSVFARKNYFYPDLPKGYQISQLEHPIVEGGHVAIQTGDQEKTIRLTRAHLEEDAGKSTHEEFHGMTGIDLNRAGTGLLEIVSEPDMRSSAEAVAYAKVLHSLVRWIGICDGNMQEGSFRCDANVSVRPAGSEALGTRCEIKNLNSFRFLERAIDYEVARQIDILESGGSITQETRLYDADRDETRTMRSKEDAHDYRYFPDPDLLPVIIPQEWIDQIREKLPELPKDKRNRYIQDFGLQTYDANILTAARELADYFEQMVSVLPGQSKLCANWIMGEVSARLNKEGLEIARSPISPEQLAGLLLRITDGTISGKIAKDVFDSMWQSNGDSADTIIDAKNLRQISDDSEIEKWVDDVLAANPQQVADYRAGKEKAFNSLVGQVMKTSKGKANPAQVNSVLKKRLTE
MGSDKIHHHHHHMQWRRVLRFVNMEVVYVLGVKGGIGKTTFSLYFANQLSLTGKKVLYIDHDYFSFGSLILGHNDLGLLEEIENNLPIFSRSLKNINNLYILKLFSNPLDANKDYSLLSNSIPQVVNSIAKMGLDYVILDSSVGILPDNDIVIGLLEELDVEKKGVFLSDMLSVNSTIKYAKLWENAIKYKILVINMVPPIPEDLSEAMKIANKVYDDNNSKLFNTVVVVPFDEKMYNYKPLGNEYENERLNTILSCIVNRCNTLIIN
MGSDKIHHHHHHMQYREFGRTGVKTSLLGFGAMRLPVIGEDHSNIDEEKAIEMIRYAIDHGVNYVDTAYPYHGGNSEKVVGKALKDGYREKVFLATKSPVWQVEKHEDFERILDEQLEKLQTDHVDMYLMHALNKERWEKIKNLRFSDFFEKAKAKGKIRFAGFSFHDSYPVFKEIVDGYDWDFCQIQLNYMDVNYQAGLRGLKYAGSKGLAVVIMEPLKGGKLARLPEKVMEILRKYNKNWSPVELSFRWIGHHPEVSTILSGMSTLEQVKQNIDIMSKITPGNLTDEDMKMIEEIRKTLESFAVINCTQCGYCMPCPNGVDIPGNFRLYNETVMFEDWEGGRRTYKWLESQKSAASFCVECGECLSKCPQKLDIPNLLKKVHRELAEVK
MGSDKIHHHHHHMRAALAQGCDPMVLTGEVWPKWRIWTRDADRFLDDAPLNKLTAPAGIPLSSFRAATLKSVAERVSKGPLPDRAVWPWILALGARNTKRRSGLQYCPDCLRDDRIPYYRLQWRLAWHVGCEHHHCSLLDRCPHCRAPLEPHRLHAEDGHMAVCATCRGDLRDVGAITPCSDDAMAFQDAGDEAIRHGSGQFMAHPTETDAWFAGASFLSALLRRANRSDAEALHVFLERMGVAVPELPLNPGTGVELLGTAERHLLLGALWKLMRTDLADVSKYLQESGITRQGFVSKGERMPDLFAETFAQLPDNARGPRKQAVRDPGQPRPRHEVMRMWRRLQRKLEMSQR
MGSDKIHHHHHHMRDFSSDHSALALNTASLGHNLEGHGAGWTSEQVIDACAERGFGSIVFWRREIGERAVKIGERVRSAGLTVAGLCRTPFLVGTQATDVESVMDDFKRSIDMAAALGAPVLTIVVGGVHPGTKGVAESLKIVADRVAEAAPCAQASGVKLALEPLNPVYAGNRSCLTTLRDAVDLCDRIAAPNVGIAVDVYHVWWDTELERQLKRAGAERIYGYHLCDWLAETNDVLLDRGMMGDGVADLKAIRSFVEGAGYRGPCEVEIFSANDWWKRDPGEVLDVMVERFRNCC
MGSDKIHHHHHHMRDNMSRLEDLEAFIHIAESGSLTRAATRLNRSLQAVSRSLTSLEVDVGLQLVHRTTRHSALSEAGQAFYRRVKPAVLEIREAQLEAAGRRTGPSGILRVGAPMLFGPDFLVPIVAEYIESYPQAEVDLSLTDAFVDLASKGIDVVVRIADLPDSNLQSKRLGALRRVVFGAPSYFARNGRPEHPAELRQHACIVRTIGNRPGQWAFQIDGKRRMVGVRGSFRSNAMAAIYSAVRSGLGLGYSPLWQIRHLVDAGQVEIVLQEFEPKPVPIHALWQESTRPPAKVRAFVDLLAMRLRLDDL
MGSDKIHHHHHHMRFFIAIYEENNITAAATRCYVSQPSLSAGLKQLEEELGGPLFERSKKGVKALDSAHYLYPLAVKLVEEASKLPALFMAKASRQKLRLAVMPDLSQRRLAGLLTQINQAISHLDLELVDYQSTADCRLTLDSLRHEDEVFFPLWEEDYVLCVPTEHPLAQANRIRPEELSQYDFIECPPCEAHQQTIGLLACSNLSLNLVAKADSKSLVMSLVLAGFGVSFLPDGLIEDEPRLKQIKFDGPRMFRRIGLCYPSHQAVAPTLAKLLRYLTQATA
